US20110257092A1 (INDIANA UNIVERSITY RESEARCH AND TECHNOLOGY, published 2011)
Ends that are not written are not given here.

Target: glucagon receptor (UniProt P47871 26-477, limits assumed)
Experiment: cell-based or functional assay

Chain of glucagon receptor (P47871 26-477 limits assumed): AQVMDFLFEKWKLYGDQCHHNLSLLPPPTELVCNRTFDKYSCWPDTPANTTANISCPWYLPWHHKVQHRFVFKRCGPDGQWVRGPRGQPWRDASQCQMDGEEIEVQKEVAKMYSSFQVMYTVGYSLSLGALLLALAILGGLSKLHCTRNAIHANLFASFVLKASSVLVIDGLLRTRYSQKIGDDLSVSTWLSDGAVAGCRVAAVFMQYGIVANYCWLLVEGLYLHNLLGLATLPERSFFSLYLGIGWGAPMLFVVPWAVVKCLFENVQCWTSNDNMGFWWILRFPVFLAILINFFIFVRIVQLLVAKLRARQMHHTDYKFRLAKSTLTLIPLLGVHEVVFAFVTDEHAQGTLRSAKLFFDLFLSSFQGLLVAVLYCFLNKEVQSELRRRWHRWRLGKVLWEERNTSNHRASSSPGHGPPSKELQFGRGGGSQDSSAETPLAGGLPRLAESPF

- glucagon agonism: > 10 fold reduction
Binder: HSEGTFTSDYSKYLDEQAAKEFIC(PEG 20 kDa)WLMNT (not fully specified (C-terminus)) [Peptide V]
